Tests used:
Type in all cases: in vitro ADME, human
[1] = substrate: COc1cc(-c2coc3cc4c(c(OC)c3c2=O)OCO4)cc(OC)c1OC; assay: Enzyme kinetics with recombinant CYP1A2; details: other: recombinant CYP1A2, sigmoidal kinetics (S50), mean ± SE, n = 3; 30.0 °C
Experimental: (§1) A series of concentrations (1–300 μM) of tectorigenin, irigenin, or irisflorentin were added to HLMs or recombinant enzymes. Nonlinear regression was performed on the substrate concentration and generation rate of metabolites to investigate the enzymatic kinetic characteristics of these components in the metabolic system. All experiments were carried out in triplicate.
(§2) A Waters AQUITY UPLC system (Waters, Milford, MA, United States) equipped with a Dikma ODS C18 column (150 × 4.6 mm, 5 μm) was used for separation at 30°C. The binary mobile phase consisted of A (an aqueous solution containing 0.1% acetic acid and 2 mM ammonium acetate) and B (acetonitrile) at a flow rate of 1 mL/min. The elution settings were as follows: 0 → 5 min: 10% B → 20% B; 5 min → 20 min: 20% B → 50% B; 20 min → 21 min: 50% B → 60% B; 21 min → 25 min: 60% B → 90% B; 25 min → 25.1 min 90%–10% B; 25.1 min → 30 min 10% B. Flow rate: 1 mL/min 260 nm was used as the detection wavelength. Calibration standard curves were generated using a reaction mixture containing tectorigenin, irigenin, or irisflorentin at a concentration range of 0.03–10 µM. The concentrations of the metabolites were calculated using a standard curve of the substrates.
(§3) GraphPad Prism software 5.0 was used to perform non-linear fitting between the metabolite generation rate (V) and substrate concentration [S]. The appropriateness of the enzyme kinetic model was determined using R ^2 and the Eadie-Hofstee fit. The maximum metabolic rate (Vmax) and Michaelis constant (Km) were obtained for kinetic processes that conformed to the Michaelis–Menten model (Equation 1). For kinetic processes that conform to the sigmoidal kinetics model (Equation 2), Vmax, Hill coefficient (n), and S50, concentrations at 50% Vmax were obtained. Intrinsic clearance (Clint) was calculated according to Equation 3 (for the Michaelis–Menten model) and Equation 4 (for the sigmoidal kinetics model). All data are expressed as mean ± Standard Error (SE). One - way analysis of variance was used to compare the differences between different groups. […]

[2] = substrate: COc1cc(-c2coc3cc(O)c(OC)c(O)c3c2=O)cc(O)c1OC; assay: Enzyme kinetics with recombinant CYP2C19; details: other: recombinant CYP2C19, mean ± SE, n = 3; 30.0 °C
Experimental: as §1, §2, §3

[3] = substrate: COc1c(O)cc2occ(-c3ccc(O)cc3)c(=O)c2c1O; assay: Enzyme kinetics with recombinant CYP2E1; details: other: recombinant CYP2E1, mean ± SE, n = 3; 30.0 °C
Experimental: as §1
A Waters AQUITY UPLC system (Waters, Milford, MA, United States) equipped with a Dikma ODS C18 column (150 × 4.6 mm, 5 μm) was used for separation at 30°C. The binary mobile phase consisted of A (an aqueous solution containing 0.1% acetic acid and 2 mM ammonium acetate) and B (acetonitrile) at a flow rate of 1 mL/min. […] The concentrations of the metabolites were calculated using a standard curve of the substrates.
GraphPad Prism software 5.0 was used to perform non-linear fitting between the metabolite generation rate (V) and substrate concentration [S]. The appropriateness of the enzyme kinetic model was determined using R ^2 and the Eadie-Hofstee fit. […] Intrinsic clearance (Clint) was calculated according to Equation 3 (for the Michaelis–Menten model) and Equation 4 (for the sigmoidal kinetics model). All data are expressed as mean ± Standard Error (SE). […]

B1: CYP1A2 (Homo sapiens) (protein)
chain: MALSQSVPFSATELLLASAIFCLVFWVLKGLRPRVPKGLKSPPEPWGWPLLGHVLTLGKNPHLALSRMSQRYGDVLQIRIGSTPVLVLSRLDTIRQALVRQGDDFKGRPDLYTSTLITDGQSLTFSTDSGPVWAARRRLAQNALNTFSIASDPASSSSCYLEEHVSKEAKALISRLQELMAGPGHFDPYNQVVVSVANVIGAMCFGQHFPESSDEMLSLVKNTHEFVETASSGNPLDFFPILRYLPNPALQRFKAFNQRFLWFLQKTVQEHYQDFDKNSVRDITGALFKHSKKGPRASGNLIPQEKIVNLVNDIFGAGFDTVTTAISWSLMYLVTKPEIQRKIQKELDTVIGRERRPRLSDRPQLPYLEAFILETFRHSSFLPFTIPHSTTRDTTLNGFYIPKKCCVFVNQWQVNHDPELWEDPSEFRPERFLTADGTAINKPLSEKMMLFGMGKRRCIGEVLAKWEIFLFLAILLQQLEFSVPPGVKVDLTPIYGLTMKHARCEHVQARLRFSIN
notes: purchased CYPEX (Dundee, United Kingdom)
B1 gave a K0.5 [1] of 38.5 ± 2.5 µM, a kcat [1] of 1.77 ± 0.0467 s⁻¹ and a kcat/Km [1] of 25000 M⁻¹ s⁻¹.

B2: CYP2C19 (Homo sapiens) (protein)
chain: MDPFVVLVLCLSCLLLLSIWRQSSGRGKLPPGPTPLPVIGNILQIDIKDVSKSLTNLSKIYGPVFTLYFGLERMVVLHGYEVVKEALIDLGEEFSGRGHFPLAERANRGFGIVFSNGKRWKEIRRFSLMTLRNFGMGKRSIEDRVQEEARCLVEELRKTKASPCDPTFILGCAPCNVICSIIFQKRFDYKDQQFLNLMEKLNENIRIVSTPWIQICNNFPTIIDYFPGTHNKLLKNLAFMESDILEKVKEHQESMDINNPRDFIDCFLIKMEKEKQNQQSEFTIENLVITAADLLGAGTETTSTTLRYALLLLLKHPEVTAKVQEEIERVIGRNRSPCMQDRGHMPYTDAVVHEVQRYIDLIPTSLPHAVTCDVKFRNYLIPKGTTILTSLTSVLHDNKEFPNPEMFDPRHFLDEGGNFKKSNYFMPFSAGKRICVGEGLARMELFLFLTFILQNFNLKSLIDPKDLDTTPVVNGFASVPPFYQLCFIPV
notes: as for B1
B2 gave a K0.5 [2] of 31.7 ± 2.4 µM, a kcat [2] of 0.255 ± 0.005 s⁻¹ and a kcat/Km [2] of 8330 M⁻¹ s⁻¹.

B3: CYP2E1 (Homo sapiens) (protein)
chain: MSALGVTVALLVWAAFLLLVSMWRQVHSSWNLPPGPFPLPIIGNLFQLELKNIPKSFTRLAQRFGPVFTLYVGSQRMVVMHGYKAVKEALLDYKDEFSGRGDLPAFHAHRDRGIIFNNGPTWKDIRRFSLTTLRNYGMGKQGNESRIQREAHFLLEALRKTQGQPFDPTFLIGCAPCNVIADILFRKHFDYNDEKFLRLMYLFNENFHLLSTPWLQLYNNFPSFLHYLPGSHRKVIKNVAEVKEYVSERVKEHHQSLDPNCPRDLTDCLLVEMEKEKHSAERLYTMDGITVTVADLFFAGTETTSTTLRYGLLILMKYPEIEEKLHEEIDRVIGPSRIPAIKDRQEMPYMDAVVHEIQRFITLVPSNLPHEATRDTIFRGYLIPKGTVVVPTLDSVLYDNQEFPDPEKFKPEHFLNENGKFKYSDYFKPFSTGKRVCAGEGLARMELFLLLCAILQHFNLKPLVDPKDIDLSPIHIGFGCIPPRYKLCVIPRS
notes: as for B1
In the case of B3, the K0.5 [3] is reported as 130.4 ± 18.8 µM and the kcat [3] is reported as 0.427 ± 0.0267 s⁻¹.

Reference: paper PMC11850249, “Typical and atypical metabolic characteristics of three iridaceae isoflavone components: in vitro and in silico studies” (Frontiers in Pharmacology, 2025)
